# Reference: patent US20250236642A1 (NEC, published 2025)
# B1: peptide of SEQ ID NO: 19 (peptide)
# peptide: VMSHHGEKL
# notes: synthetic 9-mer derived from Helios; also called A13
# B2: peptide of SEQ ID NO: 16 (peptide)
# peptide: LLITRKSFI
# notes: synthetic 9-mer derived from Fas; also called A10
# B3: peptide of SEQ ID NO: 66 (peptide)
# peptide: VFGRVMQID
# notes: synthetic 9-mer derived from Wnt5a; also called A15
# Target: T1, HLA-A*02:01 molecule
# T1 construct: MHC class I molecule on T2 cells (ATCC); also called product of an HLA-A*02:01 gene; allele A*02:01
# Experiment: flow cytometry, T2 cells
row,log Kd,Binder
1,-4.71,VLLQQFQTA (synthetic 9-mer derived from EVC2) [peptide of SEQ ID NO: 15]
2,-6.06,LLLFSAAAL (synthetic 9-mer derived from CADM1) [peptide of SEQ ID NO: 1]
3,-6.11,ALRPAPALL (synthetic 9-mer derived from EVC1) [peptide of SEQ ID NO: 26]
4,-5.08,B1
5,-4.92,LMEEHGATL (synthetic 9-mer derived from EVC2) [peptide of SEQ ID NO: 13]
6,-4.5,LIEEHGATL (synthetic 9-mer derived from EVC2) [peptide of SEQ ID NO: 40]
7,-4.09,LTEEHGATL (synthetic 9-mer derived from EVC2) [peptide of SEQ ID NO: 42]
8,-4.18,LVEEHGATL (synthetic 9-mer derived from EVC2) [peptide of SEQ ID NO: 43]
9,-5.6,LLEEHGATL (synthetic 9-mer derived from EVC2) [peptide of SEQ ID NO: 41]
10,> -3,LHEEHGATL (synthetic 9-mer derived from EVC2) [peptide of SEQ ID NO: 79]
11,> -3,LPPARHSTI (synthetic 9-mer derived from c-Myb) [peptide of SEQ ID NO: 76]
12,> -3,GSPDEFSND (synthetic 9-mer derived from Casp-8) [peptide of SEQ ID NO: 72]
13,> -3,IFADVSSST (synthetic 9-mer derived from c-Myb) [peptide of SEQ ID NO: 78]
14,> -3,GYITLGKPH (synthetic 9-mer derived from Helios) [peptide of SEQ ID NO: 80]
15,> -3,STGESAQTS (synthetic 9-mer derived from Casp-8) [peptide of SEQ ID NO: 71]
16,-6.02,AQAPPTAQL (synthetic 9-mer derived from c-Myb) [peptide of SEQ ID NO: 5]
17,-6.58,ALAPPTAQL (synthetic 9-mer derived from c-Myb) [peptide of SEQ ID NO: 6]
18,-5,ATAPPTAQL (synthetic 9-mer derived from c-Myb) [peptide of SEQ ID NO: 25]
19,> -3,ARHSTIPLV (synthetic 9-mer derived from c-Myb) [peptide of SEQ ID NO: 77]
20,-5.13,B2
21,-4.11,LIITRKSFI (synthetic 9-mer derived from Fas) [peptide of SEQ ID NO: 29]
22,-5.2,LMITRKSFI (synthetic 9-mer derived from Fas) [peptide of SEQ ID NO: 17]
23,-4.01,LVITRKSFI (synthetic 9-mer derived from Fas) [peptide of SEQ ID NO: 30]
24,-3.9,FSNDFGQSL (synthetic 9-mer derived from Casp-8) [peptide of SEQ ID NO: 35]

row,log Kd,Binder
1,-5.93,KFLEAFHEV (synthetic 9-mer derived from EVC1) [peptide of SEQ ID NO: 8]
2,-5.24,LLNPNRQTI (synthetic 9-mer derived from CADM1) [peptide of SEQ ID NO: 23]
3,> -3,GILSDHQQS (synthetic 9-mer derived from Casp-8) [peptide of SEQ ID NO: 74]
4,> -3,ILSDHQQSQ (synthetic 9-mer derived from Casp-8) [peptide of SEQ ID NO: 70]
5,-5.58,MLPQTPSHL (synthetic 9-mer derived from c-Myb) [peptide of SEQ ID NO: 24]
6,-5.69,HMAKVIEFL (synthetic 9-mer derived from EVC1) [peptide of SEQ ID NO: 38]
7,-6.49,SSFEFFEEA (synthetic 9-mer derived from c-Myb) [peptide of SEQ ID NO: 37]
8,-5.56,ATLAPAVLL (synthetic 9-mer derived from EVC1) [peptide of SEQ ID NO: 10]
9,-5.15,AVLAPAVLL (synthetic 9-mer derived from EVC1) [peptide of SEQ ID NO: 27]
10,> -3,THLDAGTVE (synthetic 9-mer derived from Casp-8) [peptide of SEQ ID NO: 75]
11,-6.16,YVYDPPTTI (synthetic 9-mer derived from CADM1) [peptide of SEQ ID NO: 2]
12,-6.23,YLYDPPTTI (synthetic 9-mer derived from CADM1) [peptide of SEQ ID NO: 4]
13,-5.47,YTYDPPTTI (synthetic 9-mer derived from CADM1) [peptide of SEQ ID NO: 3]
14,> -3,SLPNEKQTS (synthetic 9-mer derived from Casp-8) [peptide of SEQ ID NO: 69]
15,-4.08,ATGDCSSFI (synthetic 9-mer derived from c-Myb) [peptide of SEQ ID NO: 59]
16,-5.11,VLPPARHST (synthetic 9-mer derived from c-Myb) [peptide of SEQ ID NO: 54]
17,> -3,SPDEFSNDF (synthetic 9-mer derived from Casp-8) [peptide of SEQ ID NO: 73]
18,> -3,ASPSHMTSM (synthetic 9-mer derived from Helios) [peptide of SEQ ID NO: 81]
19,-6.66,CLDEHQWQL (synthetic 9-mer derived from EVC1) [peptide of SEQ ID NO: 9]
20,-4.85,CIDEHQWQL (synthetic 9-mer derived from EVC1) [peptide of SEQ ID NO: 28]
21,-5.04,CTDEHQWQL (synthetic 9-mer derived from EVC1) [peptide of SEQ ID NO: 39]
22,-5.66,ALPKIRARV (synthetic 9-mer derived from EVC2) [peptide of SEQ ID NO: 12]
23,-5.63,SLVLTWAAL (synthetic 9-mer derived from EVC2) [peptide of SEQ ID NO: 14]

# Target: T2, HLA-A*24:02 molecule
# T2 construct: MHC class I molecule on C1R-A24 cells, endogenous peptide and b2m stripped at pH 3.3, purified b2m added back; also called product of an HLA-A*24:02 gene; allele A*24:02
# Experiment: flow cytometry, C1R-A24 cells;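 further: Read-out was the amount of peptide–MHC complex on each cell, taken as the fluorescence intensity of a bound fluorescent antibody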
# Description: Thereafter, the number of MHC-peps for each C1R-A24 cell (proportional to a fluorescence intensity of the fluorescent antibody) was quantitatively measured using a fluorescence cell analyzer FACScan (Becton-Dickinson).
row,log10 Kd (M),Binder
1,-5.55,VLLQQFQTA (synthetic 9-mer derived from EVC2) [peptide of SEQ ID NO: 15]
2,-4.96,LLLFSAAAL (synthetic 9-mer derived from CADM1) [peptide of SEQ ID NO: 1]
3,-5.54,EAIDGYITL (synthetic 9-mer; also called H1) [peptide of SEQ ID NO: 47]
4,-5.42,AYRTCWIFS (synthetic 9-mer derived from Casp-8) [peptide of SEQ ID NO: 49]
5,-6.4,ALRPAPALL (synthetic 9-mer derived from EVC1) [peptide of SEQ ID NO: 26]
6,-6.1,B1
7,-5.22,LMEEHGATL (synthetic 9-mer derived from EVC2) [peptide of SEQ ID NO: 13]
8,> -3,LHEEHGATL (synthetic 9-mer derived from EVC2) [peptide of SEQ ID NO: 79]
9,-3.35,LPFSPSQFL (synthetic 9-mer derived from c-Myb) [peptide of SEQ ID NO: 60]
10,-6.52,GYITCERPF (synthetic 9-mer derived from Helios) [peptide of SEQ ID NO: 65]
11,> -3,LPPARHSTI (synthetic 9-mer derived from c-Myb) [peptide of SEQ ID NO: 76]
12,> -3,GSPDEFSND (synthetic 9-mer derived from Casp-8) [peptide of SEQ ID NO: 72]
13,-4.7,FIDSDSSSW (synthetic 9-mer derived from c-Myb) [peptide of SEQ ID NO: 57]
14,> -3,IFADVSSST (synthetic 9-mer derived from c-Myb) [peptide of SEQ ID NO: 78]
15,> -3,GYITLGKPH (synthetic 9-mer derived from Helios) [peptide of SEQ ID NO: 80]
16,> -3,STGESAQTS (synthetic 9-mer derived from Casp-8) [peptide of SEQ ID NO: 71]
17,-5.75,AQAPPTAQL (synthetic 9-mer derived from c-Myb) [peptide of SEQ ID NO: 5]
18,-5.33,ALAPPTAQL (synthetic 9-mer derived from c-Myb) [peptide of SEQ ID NO: 6]
19,-4.54,ATAPPTAQL (synthetic 9-mer derived from c-Myb) [peptide of SEQ ID NO: 25]

row,log10 Kd (M),Binder
1,-5.41,B3
2,-5.54,CMIVHQGTI (synthetic 9-mer derived from c-Myb) [peptide of SEQ ID NO: 36]
3,-4.1,CDLSSFEFF (synthetic 9-mer derived from c-Myb) [peptide of SEQ ID NO: 58]
4,> -3,ARHSTIPLV (synthetic 9-mer derived from c-Myb) [peptide of SEQ ID NO: 77]
5,-5.35,SSLDPPKVL (synthetic 9-mer derived from c-Myb) [peptide of SEQ ID NO: 55]
6,-6.64,B2
7,-5.6,LIITRKSFI (synthetic 9-mer derived from Fas) [peptide of SEQ ID NO: 29]
8,-5.12,LAITRKSFI (synthetic 9-mer derived from Fas) [peptide of SEQ ID NO: 46]
9,-4.82,LTITRKSFI (synthetic 9-mer derived from Fas) [peptide of SEQ ID NO: 45]
10,-6.01,LMITRKSFI (synthetic 9-mer derived from Fas) [peptide of SEQ ID NO: 17]
11,-4.76,LHITRKSFI (synthetic 9-mer derived from Fas) [peptide of SEQ ID NO: 63]
12,-5.46,LVITRKSFI (synthetic 9-mer derived from Fas) [peptide of SEQ ID NO: 30]
13,-8.27,TVLVPPRNL (synthetic 9-mer derived from CADM1) [peptide of SEQ ID NO: 48]
14,-4.16,HMTSSERPF (synthetic 9-mer derived from Helios) [peptide of SEQ ID NO: 64]
15,-6.77,YFFTVIFSF (synthetic 9-mer derived from Fas) [peptide of SEQ ID NO: 44]
16,-5,ISAYRTCWI (synthetic 9-mer derived from Casp-8) [peptide of SEQ ID NO: 34]
17,-6.88,KFLEAFHEV (synthetic 9-mer derived from EVC1) [peptide of SEQ ID NO: 8]
18,-6.22,LLNPNRQTI (synthetic 9-mer derived from CADM1) [peptide of SEQ ID NO: 23]
19,> -3,GILSDHQQS (synthetic 9-mer derived from Casp-8) [peptide of SEQ ID NO: 74]

row,log10 Kd (M),Binder
1,> -3,ILSDHQQSQ (synthetic 9-mer derived from Casp-8) [peptide of SEQ ID NO: 70]
2,-7.14,MLPQTPSHL (synthetic 9-mer derived from c-Myb) [peptide of SEQ ID NO: 24]
3,-6.03,HMAKVIEFL (synthetic 9-mer derived from EVC1) [peptide of SEQ ID NO: 38]
4,-5.2,ATLAPAVLL (synthetic 9-mer derived from EVC1) [peptide of SEQ ID NO: 10]
5,4.81,AVLAPAVLL (synthetic 9-mer derived from EVC1) [peptide of SEQ ID NO: 27]
6,-4.63,GRVMQIDGV (synthetic 9-mer derived from Wnt5a) [peptide of SEQ ID NO: 68]
7,> -3,THLDAGTVE (synthetic 9-mer derived from Casp-8) [peptide of SEQ ID NO: 75]
8,-6.23,YVYDPPTTI (synthetic 9-mer derived from CADM1) [peptide of SEQ ID NO: 2]
9,-6.16,YLYDPPTTI (synthetic 9-mer derived from CADM1) [peptide of SEQ ID NO: 4]
10,-5.51,YTYDPPTTI (synthetic 9-mer derived from CADM1) [peptide of SEQ ID NO: 3]
11,> -3,SLPNEKQTS (synthetic 9-mer derived from Casp-8) [peptide of SEQ ID NO: 69]
12,> -3,SPDEFSNDF (synthetic 9-mer derived from Casp-8) [peptide of SEQ ID NO: 73]
13,> -3,ASPSHMTSM (synthetic 9-mer derived from Helios) [peptide of SEQ ID NO: 81]
14,-7,SLPFSPSQF (synthetic 9-mer derived from c-Myb) [peptide of SEQ ID NO: 56]
15,-5.87,CLDEHQWQL (synthetic 9-mer derived from EVC1) [peptide of SEQ ID NO: 9]
16,-3.48,CIDEHQWQL (synthetic 9-mer derived from EVC1) [peptide of SEQ ID NO: 28]
17,-5.84,SLLITRKSF (synthetic 9-mer derived from Fas) [peptide of SEQ ID NO: 62]
18,-6.18,ALPKIRARV (synthetic 9-mer derived from EVC2) [peptide of SEQ ID NO: 12]
19,-5.31,SLVLTWAAL (synthetic 9-mer derived from EVC2) [peptide of SEQ ID NO: 14]
